The supplement of paper PMC9170038

Test system: MS2 coat protein
Assay: apparent KD of MS2 coat protein; higher = weaker reporter binding
Settings: Eterna round: R107
Outline: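 Apparent KD was obtained for each design as the median of normalised binding-curve fits over its clusters. RNA switches transcribed on-chip from Illumina sequencing clusters were titrated with SNAP-549-labelled MS2 coat protein (twofold steps, 0.7 or 1.5 nM to 3 µM) in 100 mM Tris-HCl pH 7.5, 80 mM KCl, 4 mM MgCl2, without or with constant ligand.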

[1] = input ligand: theophylline 20 uM
[2] = input ligand: theophylline 2 mM
[3] = input ligand: tryptophan 2.4 mM

Sequence	apparent KD of MS2 coat protein (input ligand: arginine 13.2 mM) [nM]	apparent KD of MS2 coat protein (input ligand: none) [nM]	apparent KD of MS2 coat protein [1] [nM]	apparent KD of MS2 coat protein [2] [nM]	apparent KD of MS2 coat protein [3] [nM]
AGCUCGCAUCCUCUAGCGUCAAAGACGCGUCGAGGACCGGUACGGCCGCCACUCGACUUGAGGAUCACCCAAGUCUAAGCGAGCA [TrypAX 11 #SwitchBubble #AlternativeMS2 #MS2Late #CuTurnoff]	54.8	92.6	91.1	215	488
AGGAAAACAUGAGCAAAGCUCAUGUGCGAAGGAGCGGCGGAAACGCCAGGUAGGUCGCGCACAUGAGCAUCAGCCAUGUGUAUCA [Omei Arginine B SS A v4]	39.5	42.3	78.8	409	31.6
AGGACCAGGAACAUGGGUGAACUGGUCCAACGAGGACCGGUACGGCCGCCACUCGAAUAAACAUGAGGAUCACCCAUGUAAUAAU [T''-M-T'-T-MS2]	83.3	327	296	442	210
AGGACGGUCGGAAGGAGCGGUACAUGAGGAUCACCCAUGUACCUCUGGGCAUCCGUAGUGUGCCAGGUAGGUCGCCGAUUGCGGG [Lareerra]	15.7	12	19.5	16.5	11.8
AGUAAUCUAACAGAUACCAGACGGUAUAUAACAUGAGGAUCACCCAUGUCUUGGGUGUACGUCCCUUGGCAGCUGAAAAUGAUAA [JR_SSTheophyB_Sub001]	157	–	551	–	756
AGUACAUGAGGAUCACCCAUGUACCAUGAUACCAGACAUGAAAAUGUCCCUUGGCAGCGUGGGUGAGGCAUCCGAAAGGAUGCCC [#05 SameState-TheophyllineA]	51.1	223	185	30.5	77.7
AGUACUCGAACGGAUACCAGCCGGACAUGAGGAUCACCCAUGUCCUACCUCUGUUCGGUUGGCCCUUGGCAGCCGUUCGUGUACA [Omei Theo B SS A v7]	41.4	–	580	–	128
AGUCGAAACUGAAGGAGCGAGAUGACAACAUUGGGUCUAACAUGAGGAUCACCCAUGUAAUCUCAGGUAGGUCGCAGUAACAAAA [Exclusion Arginine B GF 16]	172	78.7	165	104	93.1
AGUCUGGACUCGGCCGCCACUCGUGAUGCUUUGGCACAUGAGGAUCACCCAUGUGGUCGGCCUUAGAGGACCGGGAGUACCAGCU [Zaraoned]	38.6	–	65.9	61.3	–
AGUCUUAAAGGAAGGAGCGCAAUCAUAACAUGAGGAUCACCCAUGUCGAGGUGAGGGUCAUUGCAGGUAGGUCGCCUUACUAAGA [Same State - Arginine B (Freestyle 7)]	128	79.6	88.7	134	78.4
AGUCUUAUAGGAAGGAGCGCAAUCAUAACAUGAGGAUCACCCAUGUCGAGGUGAGGGUCAUUGCAGGUAGGUCGCCUAACUAAGA [Same State - Arginine B (Freestyle 8)]	126	281	121	344	96.5
AGUGCUACGUGUAAUCAAAGAGAACCAGAUACCAGAUUAGCAUACAUCCCUUGGCAGCUGCAUACAUGAGGAUCACCCAUGUCAG [theeternabot_exclusion_MS2_Theo_A_31]	26.5	–	38.4	–	31.8
AGUGUUGUAACUGAUACCAGACCUUUGCUUAUACAUGAGGAUCACCCAUGUAAAAUGGCGGUCCCUUGGCAGCAGAGAAGACGCA [#10 Same State - Theophylline B]	41.5	–	27	–	41.9
AGUUAAAUAUGUUAAUAACUAUUUACUGAAGGAGCGUGUUUUGACACAGGUAGGUCGCAGUGACAUGAGGAUCACCCAUGUCGUA [#08 Same State - Arginine A]	20.3	17.4	21.8	21.6	19.2
AGUUAUUUCCGAAGGAGCGUUAUACAUGAGGAUCACCCAUGUACAUGAGGUUCAACAUGAAAACAGGUAGGUCGCGGAUUUUGUC [Exclusion Arginine B4]	15.6	19.2	27.6	29	14.2
AUAACAUGAGGAUCACCCAUGUAAGCUGAAGGAGCGCUGGAAACAGCAGGUAGGUCGCAGCUACCUACCACCUCAUGAGGUAGGU [(M1)-(M2)-(Arg1)-(Arg2)-(A)'-(M)'-(A)''_Design6]	16.4	18.5	24.4	25.9	19
AUAACAUGAGGAUCACCCAUGUAUUGGUAACGAGGACCGGUACGGCCGCCACUCGAAUUUUGGUGGUAUAAUAUAUAUAUGAUUA [JR_SSTryptoA_Sub016]	17.4	–	25.4	18.8	–
AUAAGUACGUCAGAUACCAGACAGCCAGACUUACAUGAGGAUCACCCAUGUGGAUGGACGGUCCCUUGGCAGCUGGCCGCAAAAG [Isedgeor]	172	–	128	–	216

Sequence	apparent KD of MS2 coat protein (input ligand: arginine 13.2 mM) [nM]	apparent KD of MS2 coat protein (input ligand: none) [nM]	apparent KD of MS2 coat protein [1] [nM]	apparent KD of MS2 coat protein [2] [nM]	apparent KD of MS2 coat protein [3] [nM]
AUAAUGAGUGGUGGAUAGGUGAUCCUCUUACGAGGACCGGUACGGCCGCCACUCGAUAACAUGAGGAUCACCCAUGUAAUAAUAA [|T'-M'-Trp-Ms2|_Design19]	21	–	22.6	18.9	–
AUACAUGAGGAUCACCCAUGUAUAGAUGAAGGAGCGACCAGAGGGUCAGGUAGGUCGCAUCACAUGAGGAUCACCCAUGUACUUA [DOUBLE!!! :-D #9]	27.1	42.1	43.7	42.7	41.5
AUACAUGAGGAUCACCCAUGUCACACAGAAGGAGCGGCUGUAGAGCCAGGUAGGUCGCUGUACUGAAAAUACUUCAUACUCAUGU [#30 Exclusion - Arginine A]	21.7	59.6	43	32.3	26.1
AUACAUGAGGAUCACCCAUGUCAUACAGAAGGAGCGUCAUAUUAGACAGGUAGGUCGCUGUAAUUUUUAUUAUUCUUUAUGUAUU [JR_Nu_ExcArginiA_Sub026]	21.9	26	33.5	26.9	26.1
AUACAUGAGGAUCACCCAUGUUAUAGUGAAGGAGCGACAUUUAGGUCAGGUAGGUCGCACUAUUGAAUUAUUAUCCUUAUUUCUU [JR_ExcArginiA_Sub020]	16.1	14	22	15.5	15.7
AUACCUAAUGAGUCGUGUAACUUUUCAGAUACCAGACUUUUCGUUGUCCCUUGGCAGCUGUUUUACAUGAGGAUCACCCAUGUUG [JR_ExcTheophyA_Sub008]	14.9	–	18.5	–	14.9
AUACCUAGUGAGUCGUGUUUCUUUUCAGAUACCAGACUUUUCGUUGUCCCUUGGCAGCUGUUUUACAUGAGGAUCACCCAUGUUG [JR_ExcTheophyA_Sub007]	16.1	–	18.4	–	15.2
AUCAUAAUAGACUCGUUAGAUUAUAUGGAACGAGGACCGGUACGGCCGCCACUCGUGAUGUACAUGAGGAUCACCCAUGUUAGCA [JR_SSTryptoA_Sub002]	13.1	–	17.4	17.3	–
AUCAUCAGUUCGGCCGCCACUGUUUGGCACAGUUGUAUCGUACAUGAGGAUCACCCAUGUCACCACAGGACCGGGAACGCCGUCG [theeternabot_exclusion_MS2_Trp_B_1]	16.3	–	21.6	18.3	–
AUCCUCAAGAAUGAUACCAGACCAAACAUGAGGAUCACCCAUGUAUCAGGCAAUUGUUACGUCCCUUGGCAGCAUGUAAGCCGAC [Theo B SS t2]	35.5	–	70.2	–	39.2
AUCGCACCUGGUGAUACCAGCGUUUGCUCGUGACAUGAGGAUCACCCAUGUGGCCAGUGAUGCCCUUGGCAGCAUGGUCGGUGCA [Same State - Theophylline B (Freestyle 26)]	61.7	–	376	–	296
AUCGUACCUGAAGAUACCAGCAUGUGAUCAUAACAUGAGGAUCACCCAUGUAAUCAGUGAUGCCCUUGGCAGCUUGAUCGGUACA [Same State - Theophylline B (Freestyle 12)]	39.6	–	41.3	–	30.2
AUCGUACCUGAUGAUACCAGCAUGUGAUCAUAACAUGAGGAUCACCCAUGUAAUCAGUGAUGCCCUUGGCAGCAUAGUCGAUACA [Same State - Theophylline B (Freestyle 6)]	80.8	–	174	–	149
AUCGUACCUGAUGAUACCAGCAUGUGCUCGUAACAUGAGGAUCACCCAUGUGAUCAGUAAUGCCCUUGGCAGCAUGAUCGGUACA [Same State - Theophylline B (Freestyle 17)]	58.8	–	46.9	–	50.8
AUGCAUAGCCGAAGGAGCGCAAUAGAAUGACAUGAGGAUCACCCAUGUGUGUGAUGUGGAUUGCAGGUAGGUCGCGGAGUGGUAU [Exclusion - Arginine B (Freestyle 4)]	34.2	37.7	52.6	48.1	30.5
AUGGAACAUGAGGAUCACCCAUGUGAUGAUACCAGAUUAACGCUUAUCCCUUGGCAGCAUGUCCGCCCUCAACCUGUGGCGUAUU [theeternabot_sameState_MS2_Theo_A_50]	21.5	–	36	–	20.3
AUGGACGGCGAUCUGGGUUUACCAGAUCGGCGAGGACCGGUACGGCCGCCACUCGUGUUUAUUUAACAUGAGGAUCACCCAUGUA [SSTA #2]	62.4	97.6	163	139	21.3
AUGUCGUUGAAUACAGCGGCAUGGAGUGAUACCAGAAUGAUCAAAUUCCCUUGGCAGCAUCACAUGAGGAUCACCCAUGUUCGAU [SSTheo A #16]	22.2	–	33.2	–	40.9
